Laboratory results reported in patent publication US12440549B2, “Polyvalent immunogenicity composition for human papillomavirus” (SinoCellTech Ltd., priority 2019, dated 2025).

Test: Expression and solubility of L1 protein in insect cells (cell lysate vs supernatant, SDS-PAGE)
Assay type: physicochemical
Conditions: supernatant after centrifugation of lysate
Method: FIG. 4: Expression of C-terminal truncated HPV 16L1 (1-474). M: Marker; L: cell lysates; E-S: supernatant collected after centrifugation of the lysates.
High Five cells were infected with baculovirus containing the HPV6 L1: 33C recombinant gene obtained in Example 2 at a ratio of 1:200 (V/V), and the cell precipitate was collected by centrifugation at 1000 g±100 g at room temperature. The cells were broken up by sonication at low temperature for 3 min, centrifuged at >10,000 g for 10 min and the supernatant was collected for SDS-PAGE. Lane 1: Marker (The marker is a mixture of 7 purified proteins with molecular weights ranging from 14.4 kDa to 116 kDa, produced by Thermo Scientific); Lane 2: cell lysate; Lane 3: supernatant of the lysate collected by centrifugation.
The inventors attempted to truncate the C-terminus of HPV16 L1 by 31 amino acids and named it HPV16 L1 (1-474) (SEQ ID NO: 27).

Substance: HPV16 L1 (1-474): Comparative example: HPV16 L1 protein with the C-terminus truncated by 31 amino acids
- solubility of the expressed L1 protein: very poor solubility
- solubility of the expressed L1 protein (listed as HPV 16 L1 (1-474)): poor solubility
